Measured values: patent US20250230247A1 (DREN BIO, published 2025)

What was measured:
[1] = molecular target: T1, human Dectin-1 isoform A (human, UniProt Q9BXN2 1-247); experiment: flow cytometry on HEK Blue Dectin 1a cells (MFI)
T1 construct: also called hDectin-1a; Dectin-1 on HEK-Blue hDectin-1a cells
T1 sequence: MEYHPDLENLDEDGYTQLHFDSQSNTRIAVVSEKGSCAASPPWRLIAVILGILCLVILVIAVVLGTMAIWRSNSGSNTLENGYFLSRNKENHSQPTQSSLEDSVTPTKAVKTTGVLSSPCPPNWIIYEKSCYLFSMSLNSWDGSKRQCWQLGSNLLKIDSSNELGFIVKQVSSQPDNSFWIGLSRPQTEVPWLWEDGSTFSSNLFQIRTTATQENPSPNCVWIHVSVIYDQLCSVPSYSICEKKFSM

[2] = molecular target: T2, Trop-2 (human, UniProt P09758 27-323); experiment: flow cytometry on SiHa cells, AF647 goat anti-human secondary, 4PL fit; curve still rising (about 89,000 MFI) at the highest concentration, 300 nM
T2 construct: whole, on cells; also called Trop-2 on A431, HeLa, BxPC-3, SiHa and Capan-2 cells
T2 sequence (looked up): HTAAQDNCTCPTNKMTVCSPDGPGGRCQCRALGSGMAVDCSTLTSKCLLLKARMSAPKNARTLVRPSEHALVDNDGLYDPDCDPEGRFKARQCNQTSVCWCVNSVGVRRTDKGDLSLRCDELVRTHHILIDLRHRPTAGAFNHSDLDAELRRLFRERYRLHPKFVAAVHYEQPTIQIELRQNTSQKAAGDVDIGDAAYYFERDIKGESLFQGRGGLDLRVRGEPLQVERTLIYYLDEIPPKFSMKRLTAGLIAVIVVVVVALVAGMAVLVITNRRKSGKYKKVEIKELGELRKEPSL

[3] = molecular target: T2, Trop-2; experiment: flow cytometry on HeLa cells, AF647 goat anti-human secondary, 4PL fit; curve plateaus at about 145,000 MFI at 100-300 nM
[4] = molecular target: T2, Trop-2; experiment: flow cytometry on BxPC-3 cells, AF647 goat anti-human secondary, 4PL fit; curve still rising (about 3,500,000 MFI) at the highest concentration, 300 nM
[5] = molecular target: T2, Trop-2; experiment: flow cytometry on A431 cells (MFI)
[6] = molecular target: T2, Trop-2; experiment: flow cytometry on Capan-2 cells, AF647 goat anti-human secondary, 4PL fit; curve reaches about 1,720,000 MFI at 300 nM and starts to flatten
[7] = molecular target: T3, human Dectin-1 (biosensor tests of Tables 3, 4A and 9; construct not stated) (human, UniProt Q9BXN2 66-247, limits assumed); experiment: Fab K dis, average of 3
T3 construct: also called hDectin-1
T3 sequence (looked up): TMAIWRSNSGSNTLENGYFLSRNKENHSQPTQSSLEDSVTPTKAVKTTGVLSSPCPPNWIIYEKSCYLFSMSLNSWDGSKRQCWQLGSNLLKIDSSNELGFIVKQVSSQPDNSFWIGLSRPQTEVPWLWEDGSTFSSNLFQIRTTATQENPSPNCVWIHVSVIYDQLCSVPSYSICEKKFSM

[8] = molecular target: T3, human Dectin-1 (biosensor tests of …); experiment: Fab K dis, run 3
[9] = molecular target: T3, human Dectin-1 (biosensor tests of …); experiment: Fab K dis, run 1
[10] = molecular target: T3, human Dectin-1 (biosensor tests of …); experiment: Fab K dis, run 2
[11] = molecular target: T3, human Dectin-1 (biosensor tests of …); experiment: Octet, single point off rate fit
[12] = molecular target: T3, human Dectin-1 (biosensor tests of …); experiment: Octet response; as to X = 340: time not given here; as to X = 470: time not given here
[13] = molecular target: T3, human Dectin-1 (biosensor tests of …); experiment: Octet
[14] = molecular target: T3, human Dectin-1 (biosensor tests of …); experiment: Fab K dis, run 3; remark: listed apart in the source
[15] = molecular target: T3, human Dectin-1 (biosensor tests of …); experiment: Fab K dis, run 2; remark: listed apart in the source
[16] = molecular target: T3, human Dectin-1 (biosensor tests of …); experiment: Fab K dis, run 1; remark: listed apart in the source
[17] = molecular target: T3, human Dectin-1 (biosensor tests of …); experiment: Fab K dis, average of 3; remark: listed apart in the source
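For delta in this document: Single-point dissociation rate (koff) fit for each variant binding domain, expressed as change versus the parental clone.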

B1: 2M24/Trop-2 hIgG1 bispecific antibody (bispecific antibody, V domains shown)
VH 1: QVQLVQSGAEVKKPGASVKVSCKSSGYTFTDYYIHWVRQAPGQGLEWMGWINPNSGDTNYAQKFQGRITMTRDTSISTAYLELSRLRSDDTAVFYCARNSGSYSFGYWGQGTLVTVSS
VL 1: DIQMTQSPSSVSASVGDRVTITCRASQGISSWLAWYQQKPGKAPKLLIFGASSLQSGVPSRFSGSGSGTDFTLTVSSLQPEDFATYYCQQAYSFPFTFGPGTKVDIE
VH 2: QVQLQQSGSELKKPGASVKVSCKASGYTFTNYGMNWVKQAPGQGLKWMGWINTYTGEPTYTDDFKGRFAFSLDTSVSTAYLQISSLKADDTAVYFCARGGFGSSYWYFDVWGQGSLVTVSS
VL 2: DIQLTQSPSSLSASVGDRVSITCKASQDVSIAVAWYQQKPGKAPKLLIYSASYRYTGVPDRFSGSGSGTDFTLTISSLQPEDFAVYYCQQHYITPLTFGAGTKVEIK
notes: human IgG1; also called anti-Dectin-1 (2M24)/anti-Trop-2 bispecific antibody
EC50 [1]: 0.958 nM
EC50 [2]: 77.4 nM
EC50 [3]: 26.2 nM
EC50 [4]: 348 nM
EC50 [5]: 9.04 nM
EC50 [6]: 59.4 nM

B2: 2M24.116/Trop2 bispecific antibody (bispecific antibody, V domains shown)
VH 1: QVQLVQSGAEVKKPGASVKVSCKASGYTFTDYYMHWVRQAPGQGLEWMGWINPNEGDTNYAQKFQERITMTRDTSISTAYMELSRLRSDDTAVYYCARNTGAYSFGYWGQGTLVTVSS
VL 1: DIQMTQSPSSVSASVGDRVTITCRASQGISSWLAWYQQKPGKAPKLLIYGASDLQSGVPSRFSGSGSGTDFTLTISSLQPEDFATYYCHQAYSFPFTFGPGTKVDIK
VH 2: QVQLQQSGSELKKPGASVKVSCKASGYTFTNYGMNWVKQAPGQGLKWMGWINTYTGEPTYTDDFKGRFAFSLDTSVSTAYLQISSLKADDTAVYFCARGGFGSSYWYFDVWGQGSLVTVSS
VL 2: DIQLTQSPSSLSASVGDRVSITCKASQDVSIAVAWYQQKPGKAPKLLIYSASYRYTGVPDRFSGSGSGTDFTLTISSLQPEDFAVYYCQQHYITPLTFGAGTKVEIK
notes: hIgG1
EC50 [1]: 1.76 nM
EC50 [5]: 8.35 nM

B3: parental anti-Trop2 monospecific antibody (antibody, V domains shown)
VH: QVQLQQSGSELKKPGASVKVSCKASGYTFTNYGMNWVKQAPGQGLKWMGWINTYTGEPTYTDDFKGRFAFSLDTSVSTAYLQISSLKADDTAVYFCARGGFGSSYWYFDVWGQGSLVTVSS
VL: DIQLTQSPSSLSASVGDRVSITCKASQDVSIAVAWYQQKPGKAPKLLIYSASYRYTGVPDRFSGSGSGTDFTLTISSLQPEDFAVYYCQQHYITPLTFGAGTKVEIK
EC50 [5]: 5.21 nM

B4: 2M24A.31 hFab L2 (Fab, V domains shown)
VH: QVQLVQSGAEVKKPGASVKVSCKSSGYTFTDYYIHWVRQAPGQGLEWMGWINPNSGDTNYAQKFQGRITMTRDTSISTAYLELSRLRSDDTAVFYCARNSGSYSFGYWGQGTLVTVSS
VL: DIQMTQSPSSVSASVGDRVTITCRASQGISSWLAWYQQKPGKAPKLLIYGASSLQSGVPSRFSGSGSGTDFTLTISSLQPEDFATYYCQQAYSFPFTFGPGTKVDIE
notes: Fab; also called 2M24.L2
koff [7]: 0.0037 s⁻¹
koff [8]: 0.00239 s⁻¹
koff [9]: 0.00635 s⁻¹
koff [10]: 0.00236 s⁻¹

B5: 2M24A.32 hFab L3 (Fab, V domains shown)
VH: QVQLVQSGAEVKKPGASVKVSCKSSGYTFTDYYIHWVRQAPGQGLEWMGWINPNSGDTNYAQKFQGRITMTRDTSISTAYLELSRLRSDDTAVFYCARNSGSYSFGYWGQGTLVTVSS
VL: DIQMTQSPSSVSASVGDRVTITCRASQGISSWLAWYQQKPGKAPKLLIFAASSLQSGVPSRFSGSGSGTDFTLTISSLQPEDFATYYCQQAYSFPFTFGPGTKVDIE
notes: Fab; also called 2M24.L3
koff [7]: 0.00376 s⁻¹
koff [8]: 0.00233 s⁻¹
koff [9]: 0.00671 s⁻¹
koff [10]: 0.00223 s⁻¹

B6: 2M24A.1.14 hFab (Fab, V domains shown)
VH: QVQLVQSGAEVKKPGASVKVSCKSSGYTFTDYYIHWVRQAPGQGLEWMGWINPNSGDTNYAQKFQGRITMTRDTSISTAYLELSRLRSDDTAVFYCARNSGSASFGYWGQGTLVTVSS
VL: DIQMTQSPSSVSASVGDRVTITCRASQGISSWLAWYQQKPGKAPKLLIFGASSLQSGVPSRFSGSGSGTDFTLTVSSLQPEDFATYYCQQAYSFPFTFGPGTKVDIE
notes: Fab; also called 2M24.1.14
koff [11]: 0.313 s⁻¹
X = 340 [12]: 0.106
X = 470 [12]: 0
delta [13]: 100%

B7: 2M24A.1.15 (Fab, V domains shown)
VH: QVQLVQSGAEVKKPGASVKVSCKSSGYTFTDYYIHWVRQAPGQGLEWMGWINPNSGDTNYAQKFQGRITMTRDTSISTAYLELSRLRSDDTAVFYCAANSGSYSFGYWGQGTLVTVSS
VL: DIQMTQSPSSVSASVGDRVTITCRASQGISSWLAWYQQKPGKAPKLLIFGASSLQSGVPSRFSGSGSGTDFTLTVSSLQPEDFATYYCQQAYSFPFTFGPGTKVDIE
notes: Fab; also called 2M24.1.15
koff [11]: 0.0239 s⁻¹
X = 290 [12]: 0.082
X = 350 [12]: 0.0314
delta [13]: 62%

B8: 2M24A.33 hFab L4 (Fab, V domains shown)
VH: QVQLVQSGAEVKKPGASVKVSCKSSGYTFTDYYIHWVRQAPGQGLEWMGWINPNSGDTNYAQKFQGRITMTRDTSISTAYLELSRLRSDDTAVFYCARNSGSYSFGYWGQGTLVTVSS
VL: DIQMTQSPSSVSASVGDRVTITCRASQGISSWLAWYQQKPGKAPKLLIYAASSLQSGVPSRFSGSGSGTDFTLTISSLQPEDFATYYCQQAYSFPFTFGPGTKVDIE
notes: Fab; also called 2M24.L4
koff [7]: 0.00402 s⁻¹
koff [8]: 0.00314 s⁻¹
koff [9]: 0.00615 s⁻¹
koff [10]: 0.00278 s⁻¹

B9: 2M24A.28 hFab H6 (Fab, V domains shown)
VH: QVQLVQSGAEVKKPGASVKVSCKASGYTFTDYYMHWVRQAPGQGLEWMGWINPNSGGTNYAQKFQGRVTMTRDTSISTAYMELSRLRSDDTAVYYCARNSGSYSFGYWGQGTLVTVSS
VL: DIQMTQSPSSVSASVGDRVTITCRASQGISSWLAWYQQKPGKAPKLLIFGASSLQSGVPSRFSGSGSGTDFTLTVSSLQPEDFATYYCQQAYSFPFTFGPGTKVDIE
notes: Fab; also called 2M24.H6
koff [14]: 0.00151 s⁻¹
koff [15]: 0.000995 s⁻¹
koff [16]: 0.00412 s⁻¹
koff [17]: 0.00221 s⁻¹

B10: 2M24.119/Trop2 bispecific antibody (bispecific antibody, V domains shown)
VH 1: QVQLVQSGAEVKKPGASVKVSCKASGYTFTDYYMHWVRQAPGQGLEWMGWINPNEGDTNYAQKFEGRITMTRDTSISTAYMELSRLRSDDTAVYYCARNTGAYSFGYWGQGTLVTVSS
VL 1: DIQMTQSPSSVSASVGDRVTITCRASQGISSWLAWYQQKPGKAPKLLIYGASDLQSGVPSRFSGSGSGTDFTLTISSLQPEDFATYYCQQAYGFPFTFGPGTKVDIK
VH 2: QVQLQQSGSELKKPGASVKVSCKASGYTFTNYGMNWVKQAPGQGLKWMGWINTYTGEPTYTDDFKGRFAFSLDTSVSTAYLQISSLKADDTAVYFCARGGFGSSYWYFDVWGQGSLVTVSS
VL 2: DIQLTQSPSSLSASVGDRVSITCKASQDVSIAVAWYQQKPGKAPKLLIYSASYRYTGVPDRFSGSGSGTDFTLTISSLQPEDFAVYYCQQHYITPLTFGAGTKVEIK
notes: hIgG1
EC50 [1]: 1.3 nM
EC50 [5]: 7.87 nM

B11: 2M24A.30 hFab L1 (Fab, V domains shown)
VH: QVQLVQSGAEVKKPGASVKVSCKSSGYTFTDYYIHWVRQAPGQGLEWMGWINPNSGDTNYAQKFQGRITMTRDTSISTAYLELSRLRSDDTAVFYCARNSGSYSFGYWGQGTLVTVSS
VL: DIQMTQSPSSVSASVGDRVTITCRASQGISSWLAWYQQKPGKAPKLLIFGASSLQSGVPSRFSGSGSGTDFTLTISSLQPEDFATYYCQQAYSFPFTFGPGTKVDIE
notes: Fab; also called 2M24.L1
koff [7]: 0.00351 s⁻¹
koff [8]: 0.00213 s⁻¹
koff [9]: 0.00631 s⁻¹
koff [10]: 0.00208 s⁻¹
